The results in this text go back to patent US20200362349, “APPLICATION OF APTAMER IN RECOGNITION AND BINDING OF ALKALINE PHOSPHATASE HETERODIMER OR TUMOR DETECTION” (INSTITUTE OF CHEMISTRY, CHINESE ACADEMY OF SCIENCES, published 2020).

The target of the data set is alkaline phosphatase heterodimer IAP/PALP (ALPI/ALPP) on LoVo cells (Homo sapiens, UniProt P09923;P05187 P09923:20-503,P05187:23-506). Briefly: flow; apparent Kd on LoVo cells. As to conditions: tags: endogenous, LoVo colon cancer cells, label: fluorescent dye. The method, then: A dish of colon cancer LoVo cells in the logarithmic growth phase was digested with 0.2% EDTA in PBS into a monodisperse cell suspension, and then divided into several aliquots. The aliquots were incubated with a fluorescent molecule-labeled aptamer probe solution for 30 min and washed twice with washing buffer, and then the fluorescence intensity on the cell surface was measured with BD FACSalibur flow cytometer. The average fluorescence intensity on the cell surface was plotted against the concentration of the aptamer, and the equilibrium dissociation constant Kd of the aptamer was calculated according to the following formula: Y=BₘₐₓX (Kd+X).
alkaline phosphatase heterodimer IAP/PALP (ALPI/ALPP) on LoVo cells, sequence (P09923 20-503, chain 1 of 2): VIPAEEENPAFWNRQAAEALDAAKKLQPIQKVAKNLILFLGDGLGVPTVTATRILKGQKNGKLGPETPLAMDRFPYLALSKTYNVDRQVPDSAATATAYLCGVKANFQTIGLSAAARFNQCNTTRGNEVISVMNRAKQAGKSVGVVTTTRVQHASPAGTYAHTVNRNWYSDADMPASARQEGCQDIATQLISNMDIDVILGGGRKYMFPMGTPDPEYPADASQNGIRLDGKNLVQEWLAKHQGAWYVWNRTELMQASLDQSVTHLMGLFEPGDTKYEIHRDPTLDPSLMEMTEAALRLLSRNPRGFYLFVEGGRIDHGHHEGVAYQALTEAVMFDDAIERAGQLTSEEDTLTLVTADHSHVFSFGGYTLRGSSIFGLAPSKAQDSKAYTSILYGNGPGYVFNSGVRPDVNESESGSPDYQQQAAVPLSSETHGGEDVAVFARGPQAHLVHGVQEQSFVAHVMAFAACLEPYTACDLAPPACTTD
alkaline phosphatase heterodimer IAP/PALP (ALPI/ALPP) on LoVo cells, sequence (P05187 23-506, chain 2 of 2): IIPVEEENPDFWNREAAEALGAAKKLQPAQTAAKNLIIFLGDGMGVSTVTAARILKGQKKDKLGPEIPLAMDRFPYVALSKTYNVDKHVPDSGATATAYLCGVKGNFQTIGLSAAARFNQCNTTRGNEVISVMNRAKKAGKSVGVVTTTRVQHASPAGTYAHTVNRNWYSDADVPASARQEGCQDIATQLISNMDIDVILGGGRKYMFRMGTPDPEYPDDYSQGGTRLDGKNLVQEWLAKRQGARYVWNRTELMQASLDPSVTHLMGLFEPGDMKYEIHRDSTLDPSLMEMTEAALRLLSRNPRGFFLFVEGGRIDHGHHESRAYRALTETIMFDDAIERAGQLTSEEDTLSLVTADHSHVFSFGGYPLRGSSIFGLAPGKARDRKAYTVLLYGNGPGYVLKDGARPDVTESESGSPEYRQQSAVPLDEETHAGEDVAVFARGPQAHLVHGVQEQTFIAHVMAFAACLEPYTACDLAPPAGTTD

Turning to TAAGAAATAGGGGTCGGTGTGGGTGGTTATGATTGGCTTTCTTA (ssDNA) [BG2 stem-replaced sequence 4], for the setting “stem-loop”, the Kd is 5.7 nM.

As to CAAGGAATAGGGGTCGGTGTGGGTGGTTATGATTGGCTTCCTTG (ssDNA, PS at nucleotides 1-7 and the last 7 at the 3' end) [thio-modified BG2], the Kd (stem-loop) stood at 3.5 nM.

For GATAACATAGGGGTCGGTGTGGGTGGTTATGATTGGCTGTTATC (ssDNA) [BG2 stem-replaced sequence 5], the Kd (stem-loop) was 3 nM.

In the case of GGGGTCGGTGTGGGTGGTTATGATTGG (ssDNA) [BG2e], the Kd turned out to be 9.3 nM.

B1: BG2 with primer sequences (ssDNA)
DNA: ACGCTCGGATGCCACTACAGTCAAGGAATAGGGGTCGGTGTGGGTGGTTATGATTGGCTTCCTTGTCTCATGGACGTGCTGGTGAC
Regarding B1, the Kd came to 2.9 nM.
